How the values were obtained:
[1] = biological target: T1, recombinant human domain 1-3His6 of the cation-independent mannose-6-phosphate receptor (human, UniProt P11717 41-467); assay: BLI
T1 construct: Biotinylated (NHS-PEG4-biotin) for BLI; Glycosylated; also called hDom1-3His6; hCI-M6PRD1-D3

[2] = biological target: T2, human cation-independent mannose-6-phosphate receptor, native, on cells (human, UniProt P11717 41-2491); assay: flow cytometry on HepG2 cells: FLAG3-tagged VHH 30 min on ice, M2 anti-Flag mAb, PE anti-mouse F(ab')2 [upper graph]
T2 construct: whole, on cells; also called native CI-M6PR; cell-surface hCI-M6PR
Description: Synthetic DNA fragments encoding VHHs were ordered (IDT, Leuven, Belgium) and subcloned into an E. coli expression vector under control of an IPTG-inducible lac promoter, in frame with N-terminal PelB signal peptide (which directs the recombinant proteins to the periplasmic compartment) and C-terminal FLAG3 and His6 tags. […] VHH proteins were purified from these clones by means of IMAC chromatography followed by desalting according to well established procedures¹⁰⁶. Cells used herein were recovered using cell dissociation non-enzymatic solution (Sigma Aldrich, cat. #C5914-100ML) and resuspended to a final concentration of 1,000,000 cells/mL in FACS buffer. Cells were incubated with different concentrations of purified FLAG3-tagged VHHs for 30 minutes on ice with shaking, followed by washing and incubation with mouse M2 anti-Flag mAb (Sigma Aldrich, cat. #F-1804) in FACS buffer for 30 min on ice with shaking, followed again by washing. […] Flow cytometry and analysis were done on an Attune NxT Flow Cytometer (Thermo Fisher Scientific).
Moreover, cross-reactivity to mouse CI-M6PR was analyzed, in view of the amino acid homology between mouse and human being overall about 80% identity, but for domain 1-3 of CI-M6PR just about 75% identity.

[3] = biological target: T1, recombinant human domain 1-3His6 of the …; assay: BLI at pH 7.4, 1st of 2 repeats; BLI, biotinylated hDom1-3His6 on streptavidin tips, pH 7.4, experiment 1
Method: For each of the 11 anti-CI-M6PR VHHs, a biolayer interferometry (BLI) experiment was performed in which the hDom₁₋₃His₆ was biotinylated and coupled to streptavidin biosensor tips. Afterwards, the tips were incubated with serially diluted VHHs during the association phase and dissociation was performed at pH 7.4. Similarly, dissociation was performed at pH 7.0, pH 6.0 and pH 5.0 as well after regeneration of the biosensor tips. […] The anti-CI-M6PR antibody (clone 2G11) and GBP were used as positive and negative controls, respectively.
Analysis of the binding kinetics was performed using an Octet Red96 (FortéBio) device with Streptavidin SA Biosensor tips (VWR 733-2145). Therefore, 1 mL of human domain₁₋₃His₆ (0.5 mg/mL in 50 mM MES, 150 mM NaCl, pH 6.5) was incubated at room temperature for 30 minutes with EZ-Link™ NHS-PEG4-Biotin (1 mg) (Thermo Fischer A39259) and NaHCO₃ (100 mM). Biotinylated human domain₁₋₃His₆ was purified using a Zeba spin desalting Column™ (7K MWCO, 2 mL, Thermo Fischer 89890) and 1 μg/mL was used for immobilization on the Streptavidin SA Biosensor tips. The loaded tips were dipped into a particular anti-CI-M6PR VHH solution, serially diluted in kinetics buffer (0.2M NaH₂PO₄, 0.1M Na⁺ citrate, 0.01% BSA, 0.002% Tween20, pH 7.4). This was followed by dissociation of the particular anti-CI-M6PR VHH in kinetics buffer of pH 7.4, followed by regeneration in Glycine (10 mM, pH 3) and neutralisation. Same cycle was repeated but the dissociation was performed at pH 7.0, 6.0, 5.0, 4.5 and 4.0. A reference well and reference sensors were subtracted from ligand sensors afterwards and Savitsky-Golay filtering was applied on the data. Fitting of the data was performed using a 1:1 model, grouped per pH of dissociation.

[4] = biological target: T1, recombinant human domain 1-3His6 of the …; assay: BLI, dissoc pH 5, mean of local fits
Method: (§1) FIGS. 58 & 59. […] BLI was performed on an Octet Red96 (FortéBio) instrument in kinetics buffer (0.2 M Na₂HPO₄, 0.1 M Na⁺ citrate, 0.01% bovine serum albumin, 0.002% Tween-20). Biotinylated human domain₁₋₃His₆ was immobilized on Streptavidin SA biosensors (Sartorius) to a signal of 0.6 nm. […] Between assays, biosensors were regenerated by three times 10 s exposure to regeneration buffer (10 mM glycine pH 3). The degree of association and dissociation was measured in δ nm over time (s).
(§2) After loading, the tips were incubated with VHHs serially diluted in pH 7.4 kinetic buffer during the association phase and dissociation was performed at pH 7.4, pH 6.5, pH 6.0, pH 5.5 and pH 5.0. All biosensor tips were then regenerated before analysis of the subsequent VHH. Table 13 summarizes the kinetic parameters retrieved after processing and curve fitting of the BLI measurements. When both association and dissociation were performed at pH 7.4, a global fit was performed according to the 1:1 binding model of which the resulting affinity constants (KD), association (kₒₙ) and dissociation rate constants (koff) are shown. For measurements with association at pH 7.4 and dissociation at pH 6.5, 6.0, 5.5 and 5.0, the depicted dissociation rate constants are an average of the parameters determined by local curve fitting of the dissociation of 200, 100 and 50 nM VHH.

[5] = biological target: T1, recombinant human domain 1-3His6 of the …; assay: BLI, global 1:1 fit, pH 7.4
Method: as §1, §2

B1: anti-CI-M6PR VHH7 (VHH)
VHH: QVQLQESGGGLVQPGGSLRLSCAASGIIFSDNRMDWYRQAPGKQREWVATLASYGWKTYADSVKGRFTISRDNTKNTVYLRMNSLKPEDTAVYYCKASSPVLNDIWGQGTQVTVSS
notes: His6-tagged (Pichia pastoris)
fold higher dissociation rate at pH 6.0 versus pH 7.4 [1]: 5 fold

B2: anti-CI-M6PR VHH8 (VHH)
VHH: QVQLQESGGGLVQAGGSLRLSCEASGRTFNTYNWGWFRQAPGKEREFVAAIRWSSSKTSYADSVKGRFTISRDNAKNTIYLQMNSLKPEDTAVYYCAASIVDFTTNPSHFGSWGQGTQVTVSS
notes: His6-tagged (Pichia pastoris)
EC50 (read off the curve) [2]: ~2 nM

B3: anti-CI-M6PR VHH4 (VHH)
VHH: QVQLQESGGGLVQAGGSLRLSCAASGRTFSNYVMGWFRQAPGKEREFVGSISQGGKMTYYPDSVKGRFTISRDNAKNTMYLQMDGLKPEDTAVYYCAVSRGYPMVRVSEVDYWGQGTQVTVSS
notes: His6-tagged; made in Pichia pastoris
Kd [3]: 2.33 nM
koff [3]: 0.00133 s⁻¹
kon [3]: 571000 M⁻¹ s⁻¹

B4: anti-CI-M6PR VHH 1H11 (VHH)
VHH: QVQLQESGGGLVQPGGSLRLSCAASGIIFSDNRMDWYRQAPGKQREWVATLASYGWKTYADSVKDRFTISRDNAKNTVNLYMNSLQPEDTAVYYCNSGQYWGQGTQVTVSS
notes: made in E. coli WK6, His-tag purified
koff [4]: 0.0083 s⁻¹
Kd [5]: 4.9 nM
koff [5]: 0.0025 s⁻¹
kon [5]: 510000 M⁻¹ s⁻¹
